Measurements reported in IntAct's records for PubMed 22430200.

B1: E3 ubiquitin-protein ligase RNF31 (Homo sapiens), Q96EP0 (parent)
chain: MPGEEEERAFLVAREELASALRRDSGQAFSLEQLRPLLASSLPLAARYLQLDAARLVRCNAHGEPRNYLNTLSTALNILEKYGRNLLSPQRPRYWRGVKFNNPVFRSTVDAVQGGRDVLRLYGYTEEQPDGLSFPEGQEEPDEHQVATVTLEVLLLRTELSLLLQNTHPRQQALEQLLEDKVEDDMLQLSEFDPLLREIAPGPLTTPSVPGSTPGPCFLCGSAPGTLHCPSCKQALCPACDHLFHGHPSRAHHLRQTLPGVLQGTHLSPSLPASAQPRPQSTSLLALGDSSLSSPNPASAHLPWHCAACAMLNEPWAVLCVACDRPRGCKGLGLGTEGPQGTGGLEPDLARGRWACQSCTFENEAAAVLCSICERPRLAQPPSLVVDSRDAGICLQPLQQGDALLASAQSQVWYCIHCTFCNSSPGWVCVMCNRTSSPIPAQHAPRPYASSLEKGPPKPGPPRRLSAPLPSSCGDPEKQRQDKMREEGLQLVSMIREGEAAGACPEEIFSALQYSGTEVPLQWLRSELPYVLEMVAELAGQQDPGLGAFSCQEARRAWLDRHGNLDEAVEECVRTRRRKVQELQSLGFGPEEGSLQALFQHGGDVSRALTELQRQRLEPFRQRLWDSGPEPTPSWDGPDKQSLVRRLLAVYALPSWGRAELALSLLQETPRNYELGDVVEAVRHSQDRAFLRRLLAQECAVCGWALPHNRMQALTSCECTICPDCFRQHFTIALKEKHITDMVCPACGRPDLTDDTQLLSYFSTLDIQLRESLEPDAYALFHKKLTEGVLMRDPKFLWCAQCSFGFIYEREQLEATCPQCHQTFCVRCKRQWEEQHRGRSCEDFQNWKRMNDPEYQAQGLAMYLQENGIDCPKCKFSYALARGGCMHFHCTQCRHQFCSGCYNAFYAKNKCPEPNCRVKKSLHGHHPRDCLFYLRDWTALRLQKLLQDNNVMFNTEPPAGARAVPGGGCRVIEQKEVPNGLRDEACGKETPAGYAGLCQAHYKEYLVSLINAHSLDPATLYEVEELETATERYLHVRPQPLAGEDPPAYQARLLQKLTEEVPLGQSIPRRRK

Variants of: B1
Conditions: with hoil1_human RBCK1, Q9BYM8
Chain of hoil1_human RBCK1, Q9BYM8 (Q9BYM8 whole entry): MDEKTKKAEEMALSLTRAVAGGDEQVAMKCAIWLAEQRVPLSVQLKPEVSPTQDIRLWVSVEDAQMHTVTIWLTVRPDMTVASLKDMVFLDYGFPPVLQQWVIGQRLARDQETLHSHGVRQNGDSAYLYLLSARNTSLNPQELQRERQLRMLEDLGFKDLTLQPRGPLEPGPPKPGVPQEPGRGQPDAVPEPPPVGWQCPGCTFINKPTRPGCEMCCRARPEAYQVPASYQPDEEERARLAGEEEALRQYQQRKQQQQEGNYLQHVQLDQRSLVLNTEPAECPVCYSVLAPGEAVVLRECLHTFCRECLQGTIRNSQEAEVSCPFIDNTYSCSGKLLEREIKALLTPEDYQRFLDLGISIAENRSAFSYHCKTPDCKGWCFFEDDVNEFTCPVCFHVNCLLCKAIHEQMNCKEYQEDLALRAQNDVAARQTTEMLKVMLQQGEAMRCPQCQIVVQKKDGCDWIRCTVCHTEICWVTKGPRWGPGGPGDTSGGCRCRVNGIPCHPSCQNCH

Row | effect of a mutation on the interaction | Variant
1 | disrupting interaction | L617A

Variants of: B1
Conditions: with hoil1_human RBCK1, Q9BYM8
Remark: another data set of the same source

Row | effect of a mutation on the interaction | Variant
2 | decreasing interaction | L617A
3 | decreasing interaction | Q613A

Variants of: B1
Conditions: with hoil1_human RBCK1, Q9BYM8
Remark: another data set of the same source

Row | effect of a mutation on the interaction | Variant
4 | disrupting interaction | Q613A

Variants of: B1
Conditions: with hoil1_human RBCK1, Q9BYM8
Remark: another data set of the same source

Row | effect of a mutation on the interaction | Variant
5 | disrupting interaction | R623A

Variants of: B1
Conditions: with hoil1_human RBCK1, Q9BYM8
Remark: another data set of the same source

Row | effect of a mutation on the interaction | Variant
6 | disrupting interaction | F620A

Variants of: B1
Conditions: with hoil1_human RBCK1, Q9BYM8
Remark: another data set of the same source

Row | effect of a mutation on the interaction | Variant
7 | decreasing interaction | F620A
